In publication PMC6028919, “Scc2 Is a Potent Activator of Cohesin’s ATPase that Promotes Loading by Binding Scc1 without Pds5” (Molecular Cell, 2018):

B1: GFP-ΔN132-Scc2-1xStrepII (domain or fragment, S. cerevisiae, UniProt Q04002 133-1493, looked up)
chain: KSEIVSRPEAKHKLESVTSNAGNLSFNDNSSNKKTKTSTGVTMTQANLAEQYLNDLKNILDIVGFDQNSAEIGNIEYWLQLPNKKFVLTTNCLTKLQMTIKNITDNPQLSNSIEITWLLRLLDVMVCNIKFSKSSLKMGLDDSMLRYIALLSTIVLFNIFLLGKNDSNLHRESYIMEPVNFLSDLIESLKILTIEYGSLKIEFDTFQEALELLPKYIRNGPFLDDNVTAKLVYIFSDLLMNNDIEATTNIQFQSFWDNVKRISSDILVSLFGSFDQQRGFIIEELLSHIEKLPTKRIQKKLRKVGNQNIYITDFTFTLMSMLENINCYSFCNQMKDIAPENIDLLKNEYKKQEEFLFNIVEHINDTILERFFKNPSALRYVIDNFVQDLLLLISSPQWPVTEKILSSLLKRLLSVYSPSMQVSANIETICLQLIGNIGSTIFDIKCSTRDHEDNNLIKMINYPETLPHFFKSFEECIAYNETIKCRRSATRFLWNLRLGTILILEEYTKDAKEQIITVDNELKKILEQIKDGGLGPELENREADFSTIKLDYFSILHAFELLNLYDPYLKLILSLLAKDKIKLRSTAIKCLSMLASKDKVILSNPMVKETIHRRLNDSSASVKDAILDLVSINSSYFEFYQQINNNYNDDSIMVRKHVLRINEKMYDETNDIVTKVYVIARILMKIEDEEDNIIDMARLILLNRWILKVHEVLDQPEKLKEISSSVLLVMSRVAIMNEKCSQLFDLFLNFYLLNKEAHSKEAYDKITHVLTILTDFLVQKIVELNSDDTNEKNSIVDKQNFLNLLAKFADSTVSFLTKDHITALYPYMVSDEKSDFHYYILQVFRCTFEKLANFKQKFLYDLETTLLSRLPKMNVREIDEAMPLIWSVATHRHDTARVAKACSSCLSHLHPYINKANNEEAAIVVDGKLQRLIYLSTGFARFCFPKPSNDKIAFLQEGETLYEHITKCLLVLSKDKITHVIRRVAVKNLTKLCGNHPKLFNSRHVLHLLDKEFQSDQLDIKLVILESLYDLFLLEERKSVRNTGVNSTLSSNSILKKKLLKTNRVEFANDGVCSALATRFLDNILQLCLLRDLKNSLVAIRLLKLILKFGYTNPSHSIPTVIALFASTSQYIRHVAYELLEDLFEKYETLVFSSLSRGVTKAIHYSIHTDEKYYYKHDHFLSLLEKLCGTGKKNGPKFFKVLKRIMQSYLDDITDLTSTNSSVQKSIFVLCTNISNITFVSQYDLVSLLKTIDLTTDRLKEVIMDEIGDNVSSLSVSEEKLSGIILIQLSLQDLGTYLLHLYGLRDDVLLLDIVEESELKNKQLPAKKPDISKFSAQLENIEQYSSNGKLLTYFRKHVKDT
notes: Scc2, S. cerevisiae, synthetic codon-optimised gene; also called GFP-Scc2; Scc2-GFP; source: Sf9, baculovirus, purified (StrepTrap, gel filtration); not shown: GFP, N-terminal, kept; StrepII, C-terminal, kept
B2: His6-Pds5 (natural protein)
chain: MAKGAVTKLKFNSPIISTSDQLISTNELLDRLKALHEELASLDQDNTDLTGLDKYRDALVSRKLLKHKDVGIRAFTACCLSDILRLYAPDAPYTDAQLTDIFKLVLSQFEQLGDQENGYHIQQTYLITKLLEYRSIVLLADLPSSNNLLIELFHIFYDPNKSFPARLFNVIGGILGEVISEFDSVPLEVLRLIFNKFLTYNPNEIPEGLNVTSDCGYEVSLILCDTYSNRMSRHLTKYYSEIIHEATNDDNNSRLLTVVVKLHKLVLRLWETVPELINAVIGFIYHELSSENELFRKEATKLIGQILTSYSDLNFVSTHSDTFKAWISKIADISPDVRVEWTESIPQIIATREDISKELNQALAKTFIDSDPRVRRTSVMIFNKVPVTEIWKNITNKAIYTSLLHLAREKHKEVRELCINTMAKFYSNSLNEIERTYQNKEIWEIIDTIPSTLYNLYYINDLNINEQVDSVIFEYLLPFEPDNDKRVHRLLTVLSHFDKKAFTSFFAFNARQIKISFAISKYIDFSKFLNNQESMSSSQGPIVMNKYNQTLQWLASGLSDSTKAIDALETIKQFNDERIFYLLNACVTNDIPFLTFKNCYNELVSKLQTPGLFKKYNISTGASIMPRDIAKVIQILLFRASPIIYNVSNISVLLNLSNNSDAKQLDLKRRILDDISKVNPTLFKDQIRTLKTIIKDLDDPDAEKNDNLSLEEALKTLYKASKTLKDQVDFDDTFFFTKLYDFAVESKPEITKYATKLIALSPKAEETLKKIKIRILPLDLQKDKYFTSHIIVLMEIFKKFPHVLNDDSTDIISYLIKEVLLSNQVVGDSKKEIDWVEDSLLSDTKYSAIGNKVFTLKLFTNKLRSIAPDVPRDELAESFTEKTMKLFFYLIASGGELISEFNKEFYPTPSNYQTKLRCVAGIQVLKLARISNLNNFIKPSDIIKLINLVEDESLPVRKTFLEQLKDYVANELISIKFLPLVFFTAYEPDVELKTTTKIWINFTFGLKSFKKGTIFERALPRLIHAIAHHPDIVGGLDSEGDAYLNALTTAIDYLLFYFDSIAAQENFSLLYYLSERVKNYQDKLVEDEIDEEEGPQKEEAPKKHRPYGQKMYIIGELSQMILLNLKEKKNWQHSAYPGKLNLPSDLFKPFATVQEAQLSFKTYIPESLTEKIQNNIKAKIGRILHTSQTQRQRLQKRLLAHENNESQKKKKKVHHARSQADDEEGDGDRESDSDDDSYSPSNKNETKKGHENIVMKKLRVRKEVDYKDDEDDDIEMT

Key:
[1] = target: T1, cohesin tetramer (Smc1, Smc3, Scc1, Scc3) (S. cerevisiae, UniProt P32908 1-1225; P47037 1-1230; Q12158 1-566; P40541 1-1150); experiment: co-IP; GFP-Scc2 held by anti-GFP antibody on Protein G Dynabeads; tetramers and GFP-Scc2 in an ATPase reaction, 25°C, 45 min, then beads 45 min at room temperature; washes with 100 mM NaCl; Coomassie-stained SDS-PAGE; settings: both partners purified
T1 construct: Smc1, S. cerevisiae, synthetic codon-optimised gene; Smc3, S. cerevisiae, synthetic codon-optimised gene; Scc1 (kleisin; Mcd1), S. cerevisiae, synthetic codon-optimised gene; Scc3, S. cerevisiae, synthetic codon-optimised gene; also called wild-type tetramers; source: Sf9, co-expressed (baculovirus), purified (StrepTrap, gel filtration); not shown: 2xStrepII, C-terminal, …

[2] = target: T2, cohesin tetramer with scc1Δ152–256 (Smc1, Smc3, Scc1Δ152-256, Scc3) (S. cerevisiae, UniProt P32908 1-1225; P47037 1-1230; Q12158 1-566; P40541 1-1150, Δ152-256); experiment: as above; settings: both partners purified
T2 construct: Smc1, S. cerevisiae, synthetic codon-optimised gene; Smc3, S. cerevisiae, synthetic codon-optimised gene; Scc1 (kleisin; Mcd1), S. cerevisiae, synthetic codon-optimised gene; Scc3, S. cerevisiae, synthetic codon-optimised gene; source: Sf9, co-expressed (baculovirus), purified (StrepTrap, gel filtration); not shown: 2xStrepII, C-terminal, kept; copies: + + +

[3] = target: cohesin tetramer (Smc1, Smc3, Scc1, Scc3) (S. cerevisiae) (UniProt P32908)
Chain of cohesin tetramer (Smc1, Smc3, Scc1, Scc3) (S. cerevisiae) (P32908 whole entry, chain 1 of 4): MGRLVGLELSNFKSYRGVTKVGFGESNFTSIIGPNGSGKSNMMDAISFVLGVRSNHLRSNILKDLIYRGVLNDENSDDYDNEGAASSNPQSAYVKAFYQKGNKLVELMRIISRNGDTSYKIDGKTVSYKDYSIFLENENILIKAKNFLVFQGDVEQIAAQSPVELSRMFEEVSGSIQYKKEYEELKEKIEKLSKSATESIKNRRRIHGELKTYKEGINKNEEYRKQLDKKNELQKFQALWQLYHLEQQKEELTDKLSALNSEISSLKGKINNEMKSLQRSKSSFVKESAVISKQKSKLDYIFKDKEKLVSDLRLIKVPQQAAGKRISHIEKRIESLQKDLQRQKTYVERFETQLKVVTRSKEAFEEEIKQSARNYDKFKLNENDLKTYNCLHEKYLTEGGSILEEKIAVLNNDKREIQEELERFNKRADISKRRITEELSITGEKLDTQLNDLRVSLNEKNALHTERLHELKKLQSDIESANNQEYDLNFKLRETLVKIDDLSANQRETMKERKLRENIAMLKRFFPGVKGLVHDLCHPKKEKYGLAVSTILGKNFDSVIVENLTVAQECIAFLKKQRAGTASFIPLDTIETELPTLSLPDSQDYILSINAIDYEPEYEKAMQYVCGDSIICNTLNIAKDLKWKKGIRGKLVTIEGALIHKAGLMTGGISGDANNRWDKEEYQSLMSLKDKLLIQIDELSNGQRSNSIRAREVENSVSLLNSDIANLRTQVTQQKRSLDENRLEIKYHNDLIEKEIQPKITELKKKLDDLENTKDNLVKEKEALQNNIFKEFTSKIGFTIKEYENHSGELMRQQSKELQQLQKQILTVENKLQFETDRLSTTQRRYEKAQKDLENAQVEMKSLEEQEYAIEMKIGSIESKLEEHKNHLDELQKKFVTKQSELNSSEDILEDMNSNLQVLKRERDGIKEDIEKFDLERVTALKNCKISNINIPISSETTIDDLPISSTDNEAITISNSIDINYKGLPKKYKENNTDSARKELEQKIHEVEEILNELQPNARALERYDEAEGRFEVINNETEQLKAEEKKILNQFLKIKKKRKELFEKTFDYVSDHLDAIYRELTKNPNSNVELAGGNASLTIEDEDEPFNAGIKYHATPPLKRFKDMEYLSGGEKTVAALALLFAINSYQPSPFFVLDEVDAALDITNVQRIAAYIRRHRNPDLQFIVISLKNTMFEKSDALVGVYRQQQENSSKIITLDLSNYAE
Chain of cohesin tetramer (Smc1, Smc3, Scc1, Scc3) (S. cerevisiae) (P47037 whole entry, chain 2 of 4, further chain): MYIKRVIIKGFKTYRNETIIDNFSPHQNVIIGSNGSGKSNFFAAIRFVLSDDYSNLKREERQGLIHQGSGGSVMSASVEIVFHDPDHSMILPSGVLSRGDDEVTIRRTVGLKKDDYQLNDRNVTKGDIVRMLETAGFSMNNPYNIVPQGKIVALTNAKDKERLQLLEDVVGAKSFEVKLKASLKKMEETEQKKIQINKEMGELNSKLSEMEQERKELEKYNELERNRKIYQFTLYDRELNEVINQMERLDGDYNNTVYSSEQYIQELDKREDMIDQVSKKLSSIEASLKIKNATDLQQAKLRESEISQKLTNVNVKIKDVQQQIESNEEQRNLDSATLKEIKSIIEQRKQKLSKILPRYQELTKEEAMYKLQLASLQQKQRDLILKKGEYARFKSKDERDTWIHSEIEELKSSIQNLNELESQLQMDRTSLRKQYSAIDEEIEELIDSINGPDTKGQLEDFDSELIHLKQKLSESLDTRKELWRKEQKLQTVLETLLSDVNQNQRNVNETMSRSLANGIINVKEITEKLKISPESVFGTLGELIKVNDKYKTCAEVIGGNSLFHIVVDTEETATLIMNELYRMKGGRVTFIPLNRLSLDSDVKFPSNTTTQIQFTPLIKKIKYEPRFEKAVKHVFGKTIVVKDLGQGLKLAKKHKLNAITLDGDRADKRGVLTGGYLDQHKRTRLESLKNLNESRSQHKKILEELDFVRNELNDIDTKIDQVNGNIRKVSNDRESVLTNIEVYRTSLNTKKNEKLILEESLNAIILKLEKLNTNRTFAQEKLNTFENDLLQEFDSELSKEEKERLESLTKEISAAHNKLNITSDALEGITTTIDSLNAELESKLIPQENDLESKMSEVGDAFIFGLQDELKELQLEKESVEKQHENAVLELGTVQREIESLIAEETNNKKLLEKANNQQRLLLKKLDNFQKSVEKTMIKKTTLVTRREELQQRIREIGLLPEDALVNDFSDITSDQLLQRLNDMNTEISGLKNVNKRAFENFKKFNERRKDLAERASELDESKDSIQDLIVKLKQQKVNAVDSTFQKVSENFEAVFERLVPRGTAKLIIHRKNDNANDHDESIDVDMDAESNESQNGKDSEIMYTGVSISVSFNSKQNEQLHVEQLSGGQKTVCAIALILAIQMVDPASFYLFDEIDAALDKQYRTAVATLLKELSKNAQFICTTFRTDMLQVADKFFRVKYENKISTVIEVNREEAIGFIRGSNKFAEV
Chain of cohesin tetramer (Smc1, Smc3, Scc1, Scc3) (S. cerevisiae) (Q12158 whole entry, chain 3 of 4, further chain): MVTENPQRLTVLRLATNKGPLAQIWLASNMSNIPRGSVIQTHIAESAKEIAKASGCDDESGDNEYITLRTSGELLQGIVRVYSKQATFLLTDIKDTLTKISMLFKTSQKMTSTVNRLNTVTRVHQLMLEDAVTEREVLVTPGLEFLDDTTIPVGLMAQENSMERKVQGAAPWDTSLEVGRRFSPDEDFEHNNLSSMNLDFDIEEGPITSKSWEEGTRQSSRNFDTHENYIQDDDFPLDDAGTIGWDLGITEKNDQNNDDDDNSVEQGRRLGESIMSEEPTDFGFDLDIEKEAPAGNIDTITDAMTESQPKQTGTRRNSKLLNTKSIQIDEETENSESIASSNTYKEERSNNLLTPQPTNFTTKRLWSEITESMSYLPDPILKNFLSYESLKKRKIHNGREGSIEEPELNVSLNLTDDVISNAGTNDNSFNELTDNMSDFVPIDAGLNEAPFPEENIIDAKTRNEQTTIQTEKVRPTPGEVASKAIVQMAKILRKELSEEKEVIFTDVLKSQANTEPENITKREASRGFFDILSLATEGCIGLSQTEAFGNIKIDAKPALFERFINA
Chain of cohesin tetramer (Smc1, Smc3, Scc1, Scc3) (S. cerevisiae) (P40541 whole entry, chain 4 of 4, further chain): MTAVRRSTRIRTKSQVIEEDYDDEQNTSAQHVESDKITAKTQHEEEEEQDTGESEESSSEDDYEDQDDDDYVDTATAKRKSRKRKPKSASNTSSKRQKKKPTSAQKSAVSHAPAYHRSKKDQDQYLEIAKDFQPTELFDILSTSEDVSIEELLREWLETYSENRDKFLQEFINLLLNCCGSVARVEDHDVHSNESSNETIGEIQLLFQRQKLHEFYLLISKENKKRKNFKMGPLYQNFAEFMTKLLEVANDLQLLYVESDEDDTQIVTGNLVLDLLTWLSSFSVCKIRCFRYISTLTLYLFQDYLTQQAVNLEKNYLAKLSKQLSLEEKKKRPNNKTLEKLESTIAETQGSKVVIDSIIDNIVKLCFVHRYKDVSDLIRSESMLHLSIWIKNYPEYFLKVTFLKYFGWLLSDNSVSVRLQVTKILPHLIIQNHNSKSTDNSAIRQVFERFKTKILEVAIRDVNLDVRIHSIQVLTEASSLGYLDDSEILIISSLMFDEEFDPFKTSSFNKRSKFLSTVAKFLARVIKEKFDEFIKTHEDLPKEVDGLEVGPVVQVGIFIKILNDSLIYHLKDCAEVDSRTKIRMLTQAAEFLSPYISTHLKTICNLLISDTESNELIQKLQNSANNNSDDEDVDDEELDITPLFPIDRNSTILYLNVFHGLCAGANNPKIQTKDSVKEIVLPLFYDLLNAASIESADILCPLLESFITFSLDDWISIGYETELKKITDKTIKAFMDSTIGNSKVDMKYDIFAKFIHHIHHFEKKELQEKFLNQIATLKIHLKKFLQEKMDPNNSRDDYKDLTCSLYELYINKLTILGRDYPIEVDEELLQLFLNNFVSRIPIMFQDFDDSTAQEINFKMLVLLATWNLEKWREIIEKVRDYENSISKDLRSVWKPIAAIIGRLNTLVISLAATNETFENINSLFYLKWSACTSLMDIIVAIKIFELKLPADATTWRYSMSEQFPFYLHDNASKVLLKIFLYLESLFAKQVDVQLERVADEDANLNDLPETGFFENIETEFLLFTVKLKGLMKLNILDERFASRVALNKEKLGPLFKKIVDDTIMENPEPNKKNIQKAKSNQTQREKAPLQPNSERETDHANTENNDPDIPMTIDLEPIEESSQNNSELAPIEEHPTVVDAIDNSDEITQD

Binder	binding result [1]	binding result [2]	Scc2-stimulated ATPase activity of cohesin tetramers with a three-fold molar excess of Pds5, in the absence of DNA [3]
B1	binds	binds	
B2			2 fold
